Laboratory results taken from patent US20130209489A1 (Amgen, published 2013).

Columns and labels:
mature human myostatin [1] = molecular target: T1, mature human myostatin (human, UniProt O14793 267-375); test: cell-based or functional assay
mature human myostatin [2] = molecular target: T1, mature human myostatin; test: ratio of the affinities for GDF11 and myostatin
GDF3 = molecular target: T2, GDF3 (UniProt Q9NR23 251-364); test: Biacore SPR, ligand flowed over immobilized antibody
T2 sequence (looked up): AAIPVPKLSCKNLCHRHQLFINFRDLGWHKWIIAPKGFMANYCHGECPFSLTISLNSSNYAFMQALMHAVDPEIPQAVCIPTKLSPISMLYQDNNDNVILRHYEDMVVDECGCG
Description: (§1) Binding specificity analysis was carried out for 12A5-5 using Biacore™, a label-free surface plasmon resonance (SPR) based technology for studying biomolecular interactions in real time (GE Healthcare, Chalfont St. Giles, UK). 12A5-5, and ActRIIB/Fc were made in house, TGFbetaR11/Fc and BMPR-1A/Fc were from R & D Systems (Minneapolis, Minn.). […] Ten nanomolar of each of the ligands was flowed over immobilized high density antibody and receptor surfaces. Binding of Myostatin, GDF11, GDF3, Activin A, Activin AB, Activin AC, TGF-beta1, BMP4, BMP9, and BMP10 to their corresponding receptors was tested and used as control to normalize the signals of the ligands binding to 12A5-5 and the other receptors.

Activin A = molecular target: T3, Activin A (UniProt P08476 311-426); test: as above
T3 sequence (looked up): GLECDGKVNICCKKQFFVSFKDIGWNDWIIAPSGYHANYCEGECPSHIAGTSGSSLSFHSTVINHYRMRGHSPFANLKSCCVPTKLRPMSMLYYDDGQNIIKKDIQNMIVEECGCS
Description: as §1

Activin AB = molecular target: T4, Activin AB (UniProt P08476 311-426; P09529 293-407); test: as above
T4 construct: the two chains follow from the usual meaning of Activin AB
T4 sequence (looked up) 1: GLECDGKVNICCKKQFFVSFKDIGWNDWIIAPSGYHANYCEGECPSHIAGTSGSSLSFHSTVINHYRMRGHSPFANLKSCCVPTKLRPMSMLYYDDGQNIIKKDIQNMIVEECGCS
T4 sequence (looked up) 2: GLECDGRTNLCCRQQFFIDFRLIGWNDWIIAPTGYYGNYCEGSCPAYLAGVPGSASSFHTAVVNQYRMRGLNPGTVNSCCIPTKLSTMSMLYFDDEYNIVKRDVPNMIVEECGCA
Description: as §1

Activin AC = molecular target: T5, Activin AC (UniProt P08476 311-426; P55103 237-352); test: as above
T5 construct: the two chains follow from the usual meaning of Activin AC
T5 sequence (looked up) 1: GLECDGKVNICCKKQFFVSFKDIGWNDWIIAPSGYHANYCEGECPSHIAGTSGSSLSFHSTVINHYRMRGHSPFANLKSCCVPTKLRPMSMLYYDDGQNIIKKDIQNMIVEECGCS
T5 sequence (looked up) 2: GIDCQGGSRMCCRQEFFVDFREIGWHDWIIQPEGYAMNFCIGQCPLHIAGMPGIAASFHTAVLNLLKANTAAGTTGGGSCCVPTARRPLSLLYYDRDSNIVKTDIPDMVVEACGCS
Description: as §1

TGF-beta1 = TGF-beta1 (UniProt P01137 279-390); test: as above
TGF-beta1, sequence (P01137 279-390 limits assumed): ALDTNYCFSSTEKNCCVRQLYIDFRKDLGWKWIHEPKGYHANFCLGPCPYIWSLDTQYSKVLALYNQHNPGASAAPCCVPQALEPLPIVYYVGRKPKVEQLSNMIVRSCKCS
Description: as §1

BMP4 = molecular target: T6, BMP4 (UniProt P12644 293-408); test: as above
T6 sequence (looked up): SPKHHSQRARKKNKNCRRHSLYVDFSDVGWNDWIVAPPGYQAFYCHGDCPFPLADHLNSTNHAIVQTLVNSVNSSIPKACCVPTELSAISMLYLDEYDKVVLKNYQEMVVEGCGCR
Description: as §1

BMP9 = molecular target: T7, BMP9 (UniProt Q9UK05 320-429); test: as above
T7 sequence (looked up): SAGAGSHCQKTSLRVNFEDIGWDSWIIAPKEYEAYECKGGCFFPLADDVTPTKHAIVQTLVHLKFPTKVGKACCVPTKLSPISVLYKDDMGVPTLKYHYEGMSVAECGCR
Description: as §1

BMP10 = molecular target: T8, BMP10 (UniProt O95393 317-424); test: as above
T8 sequence (looked up): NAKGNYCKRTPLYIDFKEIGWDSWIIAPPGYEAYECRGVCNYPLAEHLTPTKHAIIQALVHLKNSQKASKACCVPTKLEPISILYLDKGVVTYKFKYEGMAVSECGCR
Description: as §1

mature human myostatin [3] = molecular target: T1, mature human myostatin; test: KinExA solution equilibrium assay, myostatin-coated beads
Excerpt: (§2) Solution-based equilibrium-binding assays using KinExA® technology (Sapidyne Instruments, Inc.) are employed to determine the dissociation equilibrium (Kd) of myostatin binding to antibody molecules. This solution-based assay is considered to be more sensitive than the BIAcore® assay in some instances. Reacti-Gel 6×(a highly reactive, cross-linked 6% agarose bead for immobilization of amine-containing ligands; Thermo Scientific Pierce, Rockford, Ill.) is pre-coated with about 50 microG/ml myostatin overnight, and then blocked with bovine serum albumin (BSA; 1 mg/ml). Antibody samples (10 pM, and 30 pM) were incubated with various concentrations (0.5 pM to 5 nM) of myostatin in sample buffer containing 0.1 mg.ml BSA at room temperature for eight hours before being run through the myostatin-coated beads. The amount of the bead-bound antibody is quantified by fluorescent (Cy5) labeled goat anti-human-Fc antibody at 1 mg/ml in SuperBlock® (an optimized protein-based solution for blocking excess binding sites; Thermo Scientific Pierce, Rockford, Ill.). The binding signal is proportional to the concentration of free antibody at equilibrium with a given myostatin concentration. Kd is obtained from the nonlinear regression of the competition curves using a dual-curve one-site homogeneous binding model provided in the KinExA™ software (Sapidyne Instruments, Inc.).

promyostatin = promyostatin (UniProt O14793 24-375, limits assumed); test: KinExA solution equilibrium assay, promyostatin-coated beads
Excerpt: as §2, with “Kd is obtained from the nonlinear regression of the competition curves using a dual-curve one-site homogeneous binding model provided in the KinExA™ software (Sapidyne Instruments, Inc.).” left out
A KinExA™ assay similar to the one previously described was run, using promyostatin instead of mature myostatin. […] The amount of the bead-bound antibody is quantified substantially as previously described.

- IC50 (nM), C2C12/pMARE luciferase reporter cell myostatin activity assay (mature human myostatin [1]): 1.85 nM
- fold selectivity for myostatin over GDF11 (mature human myostatin [2]): ~10000 fold
- Kd (mature human myostatin [3]): ~2 pM
- Kd (promyostatin): ~2 pM
B1: anti-myostatin neutralizing monoclonal antibody 12A5-5 (antibody, V domains shown)
VH: EVQLVESGGGLVQPGGSLRLSCAASGFTFSRYWMNWVRQAPGKGLEWVAQIRLKSDNYATHYAESVKGRFTISRDNAKNSLYLQMNSLRAEDTAVYYCTEGLDYWGQGTTVTVSS
VL: DIQMTQSPSSLSASVGDRVTITCKASQDINKYVAWYQQKPGKAPKLLIYYTSWLQPGVPSRFSGSGSGTDFTFTISSLQPEDIATYYCLQYDNLLYTFGQGTKLEIK
notes: in the KinExA assay it was detected with a goat anti-human-Fc antibody, so it carries a human Fc; also called Mab 12A5-5; MAb 12A5-5
- binding result (GDF3): no binding (tested: Ten nanomolar of each of the ligands)
- binding result (Activin A): no binding (tested: Ten nanomolar of each of the ligands)
- binding result (Activin AB): no binding (tested: Ten nanomolar of each of the ligands)
- binding result (Activin AC): no binding (tested: Ten nanomolar of each of the ligands)
- binding result (TGF-beta1): no binding (tested: Ten nanomolar of each of the ligands)
- binding result (BMP4): no binding (tested: Ten nanomolar of each of the ligands)
- binding result (BMP9): no binding (tested: Ten nanomolar of each of the ligands)
- binding result (BMP10): no binding (tested: Ten nanomolar of each of the ligands)
